According to publication PMC7352350, “Molecular Interactions Stabilizing the Promatrix Metalloprotease-9·Serglycin Heteromer” (International Journal of Molecular Sciences, 2020):
Values belong to the binder of their own block, whether it stands above or below them.

Columns and labels:
Details in all cases: both partners purified
[1] = molecular target: T1, recombinant proMMP-9 lacking the HPX domain (human, UniProt P14780 20-515); test: peptide or protein array; 20-mer walk of the SG core protein on cellulose, two-residue shift; 8.8 ul of 11.2 ug/mL proMMP-9 in 10 mL blocking buffer, 1-4 h, room temperature; antibody against MMP-9
T1 construct: MMP-9 proenzyme, human; stop codon behind the codon for A515; the mature proenzyme starts at 20; also called rpMMP-9ΔHPX; proMMP-9ΔHPX; source: Sf9, baculovirus, purified (gelatin-Sepharose)

[2] = molecular target: T2, proMMP-9 purified from THP-1 cells (human (endogenous in THP-1), UniProt P14780 20-707); test: as above
T2 construct: matrix metalloprotease-9 proenzyme, human; pre domain cleaved off, the mature proenzyme is 20-707; the preparation holds a small amount of TIMP-1; monomer and reduction-sensitive homomultimer; also called pMMP-9; promatrix metalloprotease-9; source: purified from conditioned medium of PMA-stimulated THP-1 cells (Q-Sepharose pass-through, gelatin-Sepharose)
Target sequence in this assay (P14780 20-707): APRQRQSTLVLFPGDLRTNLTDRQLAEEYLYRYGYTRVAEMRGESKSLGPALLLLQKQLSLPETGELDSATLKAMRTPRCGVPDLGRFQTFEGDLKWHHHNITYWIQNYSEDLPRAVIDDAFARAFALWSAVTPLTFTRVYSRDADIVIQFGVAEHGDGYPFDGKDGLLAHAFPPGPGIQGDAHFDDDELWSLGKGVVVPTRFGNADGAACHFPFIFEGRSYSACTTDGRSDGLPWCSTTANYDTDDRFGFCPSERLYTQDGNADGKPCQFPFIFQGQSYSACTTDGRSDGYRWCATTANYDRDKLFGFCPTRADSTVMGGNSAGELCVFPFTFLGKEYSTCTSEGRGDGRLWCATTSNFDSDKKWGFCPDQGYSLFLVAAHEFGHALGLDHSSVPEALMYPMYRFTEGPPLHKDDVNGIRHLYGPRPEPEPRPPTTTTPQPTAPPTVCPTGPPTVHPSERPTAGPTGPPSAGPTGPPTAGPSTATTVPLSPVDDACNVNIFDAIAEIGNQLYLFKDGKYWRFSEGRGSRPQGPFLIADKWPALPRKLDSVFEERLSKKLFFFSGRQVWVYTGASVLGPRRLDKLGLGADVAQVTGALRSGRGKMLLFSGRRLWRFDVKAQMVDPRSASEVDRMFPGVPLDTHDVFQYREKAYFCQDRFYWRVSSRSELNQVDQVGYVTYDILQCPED

[3] = molecular target: T3, recombinant full-length proMMP-9 (human, UniProt P14780 20-707); test: as above
T3 construct: matrix metalloprotease-9 proenzyme, human, full-length; pre domain cleaved off, the mature proenzyme is 20-707; also called rpMMP-9; source: Sf9, baculovirus, purified (gelatin-Sepharose)

[4] = molecular target: T4, recombinant human His-tagged serglycin (human, UniProt P10124 28-158); test: peptide or protein array; 20-mer walks of the MMP-9 FnII module and HPX domain on cellulose, two-residue shift; 10 uL of 1 ng/uL Ht-SG in 10 mL blocking buffer, 1-4 h, room temperature; antibodies against SG
T4 construct: serglycin core protein, human, the tag stands instead of the signal peptide; no GAG chains; numbers count on: the mature protein (1-131); also called Ht-SG; SG core protein; source: bought: ProSpec (produced in Escherichia coli)
T4 sequence (looked up): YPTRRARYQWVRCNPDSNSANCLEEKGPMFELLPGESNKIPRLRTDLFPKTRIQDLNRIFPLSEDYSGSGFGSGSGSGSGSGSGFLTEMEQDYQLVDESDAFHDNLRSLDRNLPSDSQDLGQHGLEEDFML

[5] = molecular target: T2, proMMP-9 purified from THP-1 cells; test: peptide or protein array; 20-mer walk of the SG core protein on cellulose, two-residue shift; 8.8 ul of 11.2 ug/mL proMMP-9 in 10 mL blocking buffer, 1-4 h, room temperature; antibody against MMP-9; remark: listed apart in the source
[6] = molecular target: T4, recombinant human His-tagged serglycin; test: peptide or protein array; mutated FnII and HPX 20-mer peptides on cellulose, incubated with Ht-SG; antibodies against SG

T1 sequence (P14780 20-515): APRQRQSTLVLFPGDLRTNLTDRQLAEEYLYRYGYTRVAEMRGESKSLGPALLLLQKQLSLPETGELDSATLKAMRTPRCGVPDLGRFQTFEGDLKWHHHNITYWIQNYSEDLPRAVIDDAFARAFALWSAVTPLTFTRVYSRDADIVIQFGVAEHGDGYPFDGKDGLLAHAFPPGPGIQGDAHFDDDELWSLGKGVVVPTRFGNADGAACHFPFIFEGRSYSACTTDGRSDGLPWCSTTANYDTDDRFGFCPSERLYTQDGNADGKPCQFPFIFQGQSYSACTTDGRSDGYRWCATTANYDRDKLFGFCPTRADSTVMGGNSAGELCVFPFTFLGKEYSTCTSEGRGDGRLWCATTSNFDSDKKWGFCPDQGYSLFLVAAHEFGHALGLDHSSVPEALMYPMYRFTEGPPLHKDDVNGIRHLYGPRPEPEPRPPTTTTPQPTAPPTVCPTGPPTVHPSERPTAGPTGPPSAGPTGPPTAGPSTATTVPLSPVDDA

B1: SG peptide 26 (peptide, UniProt P10124 78-97, looked up)
peptide: TRIQDLNRIFPLSEDYSGSG
notes: serglycin core protein, spot 26 of the 20-mer walk with two-residue shift; numbers count on: the mature protein (1-131); source: synthetic peptide on a cellulose membrane
binding result [1]: binds
binding result [2]: binds
binding result [3]: binds

B2: SG peptide 15 (peptide, UniProt P10124 56-75, looked up)
peptide: MFELLPGESNKIPRLRTDLF
notes: serglycin core protein, spot 15 of the 20-mer walk with two-residue shift; numbers count on: the mature protein (1-131); source: synthetic peptide on a cellulose membrane
binding result [1]: binds
binding result [2]: binds
binding result [3]: binds

B3: HPX peptide 71 (peptide, UniProt P14780 661-680, looked up)
peptide: THDVFQYREKAYFCQDRFYW
notes: MMP-9 HPX domain (F521-D707), spot 71 of the 20-mer walk with two-residue shift; source: synthetic peptide on a cellulose membrane
binding result [4]: binds

B4: FnII peptide 18 (peptide, UniProt P14780 259-278, looked up)
peptide: TANYDTDDRFGFCPSERLYT
notes: MMP-9 FnII module (A225-D390), spot 18 of the 20-mer walk with two-residue shift; source: synthetic peptide on a cellulose membrane
binding result [4]: binds

B5: HPX peptide 37 (peptide, UniProt P14780 593-612, looked up)
peptide: ASVLGPRRLDKLGLGADVAQ
notes: MMP-9 HPX domain (F521-D707), spot 37 of the 20-mer walk with two-residue shift; source: synthetic peptide on a cellulose membrane
binding result [4]: binds

B6: SG peptide 52 (peptide, UniProt P10124 130-149, looked up)
peptide: HDNLRSLDRNLPSDSQDLGQ
notes: serglycin core protein, spot 52 of the 20-mer walk with two-residue shift; numbers count on: the mature protein (1-131); source: synthetic peptide on a cellulose membrane
binding result [5]: binds

B7: HPX peptide 69 with F673 mutated (peptide, UniProt P14780 657-676, looked up)
peptide: VPLDTHDVFQYREKAYGCQD
notes: MMP-9 HPX domain, mutated 20-mer of spot 69; source: synthetic peptide on a cellulose membrane
binding result [6]: binds

B8: SG peptide 14 (peptide, UniProt P10124 54-73, looked up)
peptide: GPMFELLPGESNKIPRLRTD
notes: serglycin core protein, spot 14 of the 20-mer walk with two-residue shift; numbers count on: the mature protein (1-131); source: synthetic peptide on a cellulose membrane
binding result [1]: binds
binding result [2]: binds
binding result [3]: binds

B9: FnII peptide 65 (peptide, UniProt P14780 353-372, looked up)
peptide: FLGKEYSTCTSEGRGDGRLW
notes: MMP-9 FnII module (A225-D390), spot 65 of the 20-mer walk with two-residue shift; source: synthetic peptide on a cellulose membrane
binding result [4]: binds

B10: HPX peptide 85 (peptide, UniProt P14780 688-707, looked up)
peptide: LNQVDQVGYVTYDILQCPED
notes: MMP-9 HPX domain (F521-D707), last spot (85) of the 20-mer walk; source: synthetic peptide on a cellulose membrane
binding result [4]: binds

Second part, the binder after the results:

binding result [4]: binds
B11: HPX peptide 76 (peptide, UniProt P14780 671-690, looked up)
peptide: AYFCQDRFYWRVSSRSELNQ
notes: MMP-9 HPX domain (F521-D707), spot 76 of the 20-mer walk with two-residue shift; source: synthetic peptide on a cellulose membrane

binding result [1]: binds
binding result [2]: binds
binding result [3]: binds
B12: SG peptide 22 (peptide, UniProt P10124 70-89, looked up)
peptide: LRTDLFPKTRIQDLNRIFPL
notes: serglycin core protein, spot 22 of the 20-mer walk with two-residue shift; numbers count on: the mature protein (1-131); source: synthetic peptide on a cellulose membrane

binding result [4]: binds
B13: FnII peptide 35 (peptide, UniProt P14780 293-312, looked up)
peptide: IFQGQSYSACTTDGRSDGYR
notes: MMP-9 FnII module (A225-D390), spot 35 of the 20-mer walk with two-residue shift; source: synthetic peptide on a cellulose membrane

binding result [4]: binds
B14: HPX peptide 10 (peptide, UniProt P14780 539-558, looked up)
peptide: YWRFSEGRGSRPQGPFLIAD
notes: MMP-9 HPX domain (F521-D707), spot 10 of the 20-mer walk with two-residue shift; source: synthetic peptide on a cellulose membrane

binding result [4]: binds
B15: FnII peptide 15 (peptide, UniProt P14780 253-272, looked up)
peptide: LPWCSTTANYDTDDRFGFCP
notes: MMP-9 FnII module (A225-D390), spot 15 of the 20-mer walk with two-residue shift; source: synthetic peptide on a cellulose membrane

binding result [4]: binds
B16: HPX peptide 84 (peptide, UniProt P14780 687-706, looked up)
peptide: ELNQVDQVGYVTYDILQCPE
notes: MMP-9 HPX domain (F521-D707), spot 84 of the 20-mer walk with two-residue shift; source: synthetic peptide on a cellulose membrane

binding result [1]: binds
binding result [2]: binds
binding result [3]: binds
B17: SG peptide 27 (peptide, UniProt P10124 80-99, looked up)
peptide: IQDLNRIFPLSEDYSGSGFG
notes: serglycin core protein, spot 27 of the 20-mer walk with two-residue shift; numbers count on: the mature protein (1-131); source: synthetic peptide on a cellulose membrane

binding result [5]: binds
B18: SG peptide 50 (peptide, UniProt P10124 126-145, looked up)
peptide: SDAFHDNLRSLDRNLPSDSQ
notes: serglycin core protein, spot 50 of the 20-mer walk with two-residue shift; numbers count on: the mature protein (1-131); source: synthetic peptide on a cellulose membrane

binding result [5]: binds
B19: SG peptide 53 (peptide, UniProt P10124 132-151, looked up)
peptide: NLRSLDRNLPSDSQDLGQHG
notes: serglycin core protein, spot 53 of the 20-mer walk with two-residue shift; numbers count on: the mature protein (1-131); source: synthetic peptide on a cellulose membrane

binding result [4]: binds
B20: FnII peptide 22 (peptide, UniProt P14780 267-286, looked up)
peptide: RFGFCPSERLYTQDGNADGK
notes: MMP-9 FnII module (A225-D390), spot 22 of the 20-mer walk with two-residue shift; source: synthetic peptide on a cellulose membrane

binding result [4]: binds
B21: HPX peptide 11 (peptide, UniProt P14780 541-560, looked up)
peptide: RFSEGRGSRPQGPFLIADKW
notes: MMP-9 HPX domain (F521-D707), spot 11 of the 20-mer walk with two-residue shift; source: synthetic peptide on a cellulose membrane

binding result [4]: binds
B22: FnII peptide 21 (peptide, UniProt P14780 265-284, looked up)
peptide: DDRFGFCPSERLYTQDGNAD
notes: MMP-9 FnII module (A225-D390), spot 21 of the 20-mer walk with two-residue shift; source: synthetic peptide on a cellulose membrane

binding result [6]: binds
B23: HPX peptide 69 with Y672 mutated (peptide, UniProt P14780 657-676, looked up)
peptide: VPLDTHDVFQYREKAAFCQD
notes: as for B7

binding result [1]: binds
binding result [2]: binds
binding result [3]: binds
B24: SG peptide 24 (peptide, UniProt P10124 74-93, looked up)
peptide: LFPKTRIQDLNRIFPLSEDY
notes: serglycin core protein, spot 24 of the 20-mer walk with two-residue shift; numbers count on: the mature protein (1-131); source: synthetic peptide on a cellulose membrane
